Results from publication PMC5540999, “In vivo monitoring of the recruitment and activation of AP-1 by Arf1” (Scientific Reports, 2017).

Biological target: T1, β1-RlucII (human, UniProt Q10567 1-949)
T1 construct: β1 subunit of AP-1, human; amplified by PCR minus the stop codon; also called β-RlucII; source: HEK293T, transfected, in live cells (BRET), cell fractions and lysate (co-IP); not shown: RlucII, C-terminal, kept
T1 sequence (looked up): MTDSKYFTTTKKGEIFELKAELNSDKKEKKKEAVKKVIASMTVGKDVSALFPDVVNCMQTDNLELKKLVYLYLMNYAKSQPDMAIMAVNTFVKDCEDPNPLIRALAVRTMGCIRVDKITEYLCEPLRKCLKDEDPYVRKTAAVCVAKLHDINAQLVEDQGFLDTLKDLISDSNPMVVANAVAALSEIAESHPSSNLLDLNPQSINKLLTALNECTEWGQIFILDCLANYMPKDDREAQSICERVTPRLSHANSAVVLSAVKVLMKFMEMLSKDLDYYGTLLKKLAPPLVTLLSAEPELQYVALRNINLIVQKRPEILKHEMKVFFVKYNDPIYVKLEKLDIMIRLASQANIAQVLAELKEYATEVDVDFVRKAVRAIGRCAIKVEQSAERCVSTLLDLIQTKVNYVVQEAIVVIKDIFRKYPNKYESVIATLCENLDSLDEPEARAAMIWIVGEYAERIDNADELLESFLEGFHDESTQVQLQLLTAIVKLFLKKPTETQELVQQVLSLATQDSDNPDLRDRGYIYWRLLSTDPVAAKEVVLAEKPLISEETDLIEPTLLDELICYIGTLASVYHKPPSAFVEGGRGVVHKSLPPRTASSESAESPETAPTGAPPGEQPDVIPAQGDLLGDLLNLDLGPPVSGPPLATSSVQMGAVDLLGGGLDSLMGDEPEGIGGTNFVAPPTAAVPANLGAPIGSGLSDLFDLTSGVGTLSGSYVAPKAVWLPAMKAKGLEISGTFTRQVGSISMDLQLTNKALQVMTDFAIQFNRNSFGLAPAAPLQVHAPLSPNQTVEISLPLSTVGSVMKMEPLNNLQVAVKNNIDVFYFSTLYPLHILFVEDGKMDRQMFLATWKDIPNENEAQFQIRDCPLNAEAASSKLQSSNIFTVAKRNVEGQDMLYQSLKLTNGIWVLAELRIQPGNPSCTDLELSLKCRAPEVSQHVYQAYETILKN
Test: FRET or BRET; BRET^2 in live HEK293T cells (γ/µ1 also in Arf1-KO cells; some panels with Brefeldin A 10 µM 15 min or co-expressed Arf1-HA forms): low constant amount of the RlucII donor, increasing amounts of the GFP10 acceptor; coelenterazine 400a 5 µM; BRET50 and BRETmax from a one-site saturation fit
Details: partners not purified

B1: β1-GFP10 (AP-1 β1 subunit, wild type) (natural protein, human, UniProt Q10567 1-949, looked up)
chain: T1 sequence (looked up)
notes: β1 subunit of the adaptor protein complex 1 (AP-1), human; amplified by PCR minus the stop codon; also called β-GFP10; full-length β1-GFP10; source: HEK293T, transfected, in live cells (BRET), cell fractions and lysate (co-IP); not shown: GFP10, C-terminal, kept
**Q.** For B1, which “fold decrease of BRET50 in the presence of Arf1^Q71L-HA” value is on record?
**A.** ~4 fold
